We go through 4 molecules from patent US9201073B2, “Methods and compositions for enhancing proteasome activity” (President and Fellows of Harvard College, priority 2007, dated 2015).

One series addresses T1, Ubp6 (Saccharomyces cerevisiae, UniProt P43593).
T1 construct: GST (N, cleaved yes); made in house; host or cells: bacteria (pGEX-4T-1, plasmid pDL74)
T1 sequence (P43593 1-499): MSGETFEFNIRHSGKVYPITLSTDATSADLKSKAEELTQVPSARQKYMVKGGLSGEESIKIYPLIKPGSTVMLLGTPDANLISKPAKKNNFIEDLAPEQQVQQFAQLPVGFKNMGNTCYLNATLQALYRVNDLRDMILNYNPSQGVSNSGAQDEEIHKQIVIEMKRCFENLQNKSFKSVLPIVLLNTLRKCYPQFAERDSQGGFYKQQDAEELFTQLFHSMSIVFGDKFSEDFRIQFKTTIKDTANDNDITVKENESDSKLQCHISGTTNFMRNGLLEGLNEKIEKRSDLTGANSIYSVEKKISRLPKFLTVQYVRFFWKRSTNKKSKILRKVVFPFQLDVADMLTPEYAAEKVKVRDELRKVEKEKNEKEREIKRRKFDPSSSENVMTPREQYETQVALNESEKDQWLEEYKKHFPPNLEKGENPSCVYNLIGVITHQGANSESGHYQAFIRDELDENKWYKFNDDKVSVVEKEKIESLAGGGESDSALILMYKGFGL
Briefly: Ub-AMC hydrolysis by Ubp6 treated with ubiquitin-vinyl sulfone. Particulars: Ub-VS 2.5 μM; Ub-AMC 0.5 μM. The format is biochemical, yeast. The procedure:
FIG. 9A depicts the result of an in vitro ub-cyclin B assay carried out with ubp6Δ proteasomes (135 nM) supplemented with wild-type Ubp6 (540 nM) and ubiquitinvinyl sulfone (2.5 μM), as indicated. The lower panel is anti-Ubp6 immunoblot showing modification of Ubp6 by Ub-VS. Ubp6 was present in four-fold molar excess over proteasome, and thus only a fraction of Ubp6 protein was modified.
FIG. 9B depicts the results of Ub-AMC (0.5 μM) hydroylsis assay.
As an alternate approach to assay non-catalytic inhibition, ubiquitin-vinyl sulfone (Ub-VS), an irreversible active site inhibitor of Ubp6, was used. Residual Ub-AMC hyrdolyzing activity in the presence of Ubp6-Ub-VS is at the level of background in this assay. […] Indeed the large excess of substrate over Ubp6 (see Methods described in Example 1) is inconsistent with a model in which Ubp6 inhibits degradation by sequestering substrate. […] Although these functions are distinct, each requires both the Ubl domain and the C-terminal domain. The Ubl domain serves in both cases to target Ubp6 to the proteasome, and that both functions are obligatorily executed on the proteasome.

Another series concerns the target T2, proteasomes (Saccharomyces cerevisiae, UniProt P30656+P43588).
T2 construct: A previously described procedure for purification of the proteasome; TEV-ProA (TEV site + protein A), chromosomally integrated (C); made in house
Briefly: Proteasome-dependent hydrolysis of suc-LLVY-AMC. Conditions: o-PA treatment. The format is biochemical, yeast. An excerpt: FIG. 1E is a graph depicting proteasome-dependent hydrolysis of suc-LLVY-AMC (SEQ ID NO: 1), a ubiquitin-independent fluorogenic proteasome substrate. Error bars reflect standard deviations.
The next studies were designed to determine whether the observed difference in cyclin B degradation was due specifically to Ubp6. Proteasomes were examined by Coomassie blue staining (FIG. 1D) and native gel electrophoresis, and no evidence for either an unexpected compositional difference or a gross structural abnormality in mutant proteasomes was found (see also Guterman and Glickman. (2004). Complementary roles for Rpn11 and Ubp6 in deubiquitination and proteolysis by the proteasome. J. Biol. Chem. 279, 1729-1738).

Series [1] deals with T3, ubp6Δ proteasomes (Saccharomyces cerevisiae, UniProt P30656+P43588).
T3 construct: proteasomes purified from ubp6Δ mutants; TEV-ProA (TEV site + protein A), chromosomally integrated (C); made in house
Briefly: In vitro ub-cyclin B deubiquitination/degradation assay with purified yeast proteasomes. The format is biochemical. Conditions: for inhibition of cyclin B degradation: ubp6Δ proteasomes 135 nM, recombinant Ubp6 or Usp14 species 540 nM, Ubl and Ubl-MBP 1.35 μM, preincubated 5 min, immunoblot. The procedure: Proteasomes (135 nM) were incubated with ub-cyclin Bin the presence of 1 mM ATP and buffer (50 mM Tris [pH 7.51, 1 mM EDTA, 5 mM MgCl2) for the indicated times. Reactions were terminated by the addition of 5×SDS Laemmli loading buffer (Leggett, et al. (2002). Multiple associated proteins regulate proteasome structure and function. Mol. Cell. 10, 495-507) and boiled for 5 min. Where indicated, recombinant, purified Ubp6 or Usp14 species (540 nM) were preincubated with proteasomes for 5 min prior to the reaction. […] Unless otherwise noted, immunoblots were visualized with anti-cyclin B1 polyclonal antibodies. Polyclonal antibodies recognizing Ubp6, Rpn5, Rpn12, and ubiquitin were used as indicated. Ub-cyclin B was added in molar excess over proteasome, generally on the order of 25-fold, except for FIGS. 4C, 6A and 6B, where the substrate:enzyme ratio was increased by a factor of five.
In the experiments of FIGS. 1, 4 (except FIG. 4C), and 6C, time points were sampled after the preparation of a single reaction mixture. The zero time points therefore reflect a lag which represents the amount of time required to sample the first time point after having prepared the reaction mixture. […] In the experiments of FIGS. 2, 4C, and 6 (except 6C), each time point was carried out as an independent reaction. The zero time points were prepared in the presence of 5×LLB, and accordingly, no processing could occur before time zero.
Ubiquitination of cyclin B was carried out. Briefly, for each 30 μl reaction, Anaphase Promoting Complex (APC) was immunopurified from 600 μl of mitotic Xenopus egg extract with 12 μg of anti-Cdc27 antibodies (AF3.1, Santa Cruz Biotechnologies, Santa Cruz, Calif.) bound to 30 μl of Affiprep Protein A beads (Bio-Rad, Hercules, Calif.). Beads were washed three times with XB high salt (10 mM potassium HEPES pH 7.7, 500 mM KCl, 0.1 mM CaCl2, 1 mM MgCl2), two times with XB (same but with 100 mM KCl), and then three times into the reaction buffer (20 mM Tris pH 7.5, 100 mM KCl, 2.5 mM MgCl2, 2 mM ATP). Ubiquitination reactions contained immunoprecipitated APC on 30 μl of beads, and 30 μl of a mix containing recombinant MBP-human E1 at 200 μg/ml, histidine-tagged Ubc4 at 66 μg/ml, ubiquitin at 1.25 mg/ml, and 50 μg/ml of histidine-tagged cyclin B1/cdc2 complex expressed in baculovirus. Reactions were incubated for 90 minutes at 22° C. with agitation on a shaker at 1,000 RPM. Reaction supernatants were combined with the eluate from the wash of beads with 20 μl of reaction buffer. Reactions were either used fresh after preparation or frozen at −80° C. until use with purified proteasomes.
A general note: Immunoblotting shows a protein as a band on a membrane.

Series [2] concerns the target T3, ubp6Δ proteasomes. Nature of the series: Quantitation of proteasome inhibition by quantitative mass spectrometry of cyclin B. The format is biochemical, yeast. Conditions: 20-minute incubation. As to the method:
A standard substrate degradation assay was carried out, and analyzed in parallel by SDS-PAGE followed by Coomassie blue staining and immunoblot with anti-cyclin B antibody. Immunoblots were used to identify and excise the cyclin B-containing regions of the Coomassie-stained gel, and the lanes were analyzed by mass spectrometry.
To quantify the extent of proteasome inhibition by Ubp6, a method of quantitative mass spectrometry was utilized. After a 20-minute incubation, approximately half of the total cyclin B was degraded by ubp6Δ proteasomes (FIG. 4C).

For another series, the system named is Ub-AMC. Nature of the series: Ub-AMC hydrolyzing activity of purified recombinant Ubp6 species. Conditions: purified recombinant enzyme 0.5 μM. The format is biochemical. As to the method: FIG. 8 is a graph depicting that the Ubp6-C118A mutant lacks deubiquitinating activity. Ub-AMC hydrolyzing activity of purified recombinant wild-type Ubp6 or Ubp6-C118A (0.5 μM). Ub-AMC, no enzyme control.

Another series concerns the target T4, proteasome (Saccharomyces cerevisiae, UniProt P30656+P43588).
T4 construct: A previously described procedure for purification of the proteasome; TEV-ProA (TEV site + protein A), chromosomally integrated (C); made in house
Briefly: Ub-Cdc34 binding assay (electrophoretic mobility shift of proteasome). Also noted: species or system yeast. Conditions: proteasome 4 pmoles, ub-Cdc34 8 pmoles, Ubp6-C118A 8 pmoles. The procedure: Binding of ubiquitinated-Cdc34 (8 pmoles) to proteasome (4 pmoles) was carried by native gel electrophoresis followed by overlay of the fluorogenic activity-based probe, suc-LLVY-AMC (SEQ ID NO: 1), as previously described (Elsasser, et al. (2004). Rad23 and Rpn10 serve as alternative ubiquitin receptors for the proteasome. J. Biol. Chem. 279, 26817-26822). Ubp6 or Ubp6-C118A (8 pmoles) were preincubated with proteasomes prior to substrate addition.

The target of series [3] is T5, RP purified from a ubp6Δ mutant (Saccharomyces cerevisiae, UniProt P43588).
T5 construct: TEV-ProA (TEV site + protein A), chromosomally integrated (C); made in house
Briefly: Processing of ub-cyclin B by regulatory particle (RP). The format is biochemical, yeast. Conditions: RP 135 nM, four-fold molar excess of Ubp6 species. As to the method: FIGS. 6A and 6B depict the processing of ub-cyclin B by RP (ubp6Δ) in the presence or absence of purified Ubp6. Reactions were visualized by immunoblotting with anti-cyclin B antibody or anti-ubiquitin antibody, as indicated.
FIG. 12 is an illustration depicting the RP-mediated disassembly of Ub-cyclin B conjugates by Ubp6. Proteasome regulatory particle (135 nM) purified from a ubp6Δ strain was combined with a four-fold molar excess of Ubp6, Ubp6-ublΔ, or Ubp6-C118A, and Ub-Cyclin B, and incubated for the indicated times. Reactions were visualized by immunoblot with anti-ubiquitin antibody. *represents a non-ubiquitin immunoreactive band.
A previously described procedure for purification of the proteasome (Leggett, et al. (2002). Multiple associated proteins regulate proteasome structure and function. Mol. Cell. 10, 495-507) was modified by adding 1 mM ATP and 5 mM MgCl2 to all purification buffers, and by washing resins with 100 bed vol. of buffer containing 50 mM NaCl, as opposed to 50 bed vol. of buffer containing 100 mM NaCl. RP was purified in the presence of ATP and MgCl2 as described (Leggett et al., 2002).
Proteasomes (135 nM) were incubated with ub-cyclin Bin the presence of 1 mM ATP and buffer (50 mM Tris [pH 7.51, 1 mM EDTA, 5 mM MgCl2) for the indicated times. […]

ubiquitin-vinyl sulfone [Ub-VS]: the “catalytic activity of wild-type Ubp6 as measured by Ub-AMC hydrolysis” value with Ubp6 is listed as “completely eliminated”.
With `c1cnc2c(c1)ccc1cccnc12` [o-PA, o-phenanthroline, reference compound], the LLVY-hydrolysis by proteasomes entry on proteasomes is “no effect”. Besides, at ubp6Δ proteasomes [1] (ubp6Δ proteasomes, o-PA 10 mM added 10 min prior to cyclin B), the “deubiquitination and degradation of cyclin B” value was “strongly inhibited”.

B1: Ubp6-C118A: catalytically inactive point mutant of Ubp6 (protein)
chain: MSGETFEFNIRHSGKVYPITLSTDATSADLKSKAEELTQVPSARQKYMVKGGLSGEESIKIYPLIKPGSTVMLLGTPDANLISKPAKKNNFIEDLAPEQQVQQFAQLPVGFKNMGNTAYLNATLQALYRVNDLRDMILNYNPSQGVSNSGAQDEEIHKQIVIEMKRCFENLQNKSFKSVLPIVLLNTLRKCYPQFAERDSQGGFYKQQDAEELFTQLFHSMSIVFGDKFSEDFRIQFKTTIKDTANDNDITVKENESDSKLQCHISGTTNFMRNGLLEGLNEKIEKRSDLTGANSIYSVEKKISRLPKFLTVQYVRFFWKRSTNKKSKILRKVVFPFQLDVADMLTPEYAAEKVKVRDELRKVEKEKNEKEREIKRRKFDPSSSENVMTPREQYETQVALNESEKDQWLEEYKKHFPPNLEKGENPSCVYNLIGVITHQGANSESGHYQAFIRDELDENKWYKFNDDKVSVVEKEKIESLAGGGESDSALILMYKGFGL
Take B1: in the series with ubp6Δ proteasomes [2], the “inhibition of degradation (cyclin B)” value is on record as “approximately 70%”. Moreover, in the series with Ub-AMC, the “deubiquitinating activity against the model substrate Ub-AMC” value is recorded as “completely devoid of deubiquitinating activity”. In the series with proteasome, the “conjugate (ubiquitinated Cdc34) binding to the proteasome” value is recorded as “comparable conjugate binding”. The “inhibition of cyclin B degradation” value with ubp6Δ proteasomes [1] is given as “competent for inhibition”. For the same molecule, the “processing of ub-cyclin B conjugates by RP” value in series [3] was “no effect on substrate processing”.

B2: Ubl: N-terminal ubiquitin-like domain of Ubp6 by itself (protein)
chain: MSGETFEFNIRHSGKVYPITLSTDATSADLKSKAEELTQVPSARQKYMVKGGLSGEESIKIYPLIKPGSTVMLLGTPDANLIS
For B2, the “inhibition of cyclin B degradation” value in the series with ubp6Δ proteasomes [1] is recorded as “no effect on cyclin B degradation”.
